# Results as given in patent US10590193 (dated 2020).
# Changes are numbered by the printed parent chain.
# T1: mouse VEGF164 (mouse, UniProt Q00731)
# T1 chain: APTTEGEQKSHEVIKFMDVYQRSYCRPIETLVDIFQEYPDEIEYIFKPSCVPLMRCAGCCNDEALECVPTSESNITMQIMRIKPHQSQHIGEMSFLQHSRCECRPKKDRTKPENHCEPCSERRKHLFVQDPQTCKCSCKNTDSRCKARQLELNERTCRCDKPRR
# T2: human VEGF121 (human, UniProt P15692)
# T2 chain: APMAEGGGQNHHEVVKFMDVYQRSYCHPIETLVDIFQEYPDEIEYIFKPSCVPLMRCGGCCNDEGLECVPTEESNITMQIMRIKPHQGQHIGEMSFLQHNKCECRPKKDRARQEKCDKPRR
# T3: rat VEGF164 (rat, UniProt P16612)
# T3 chain: T1 chain with S10A, I14V, I75V
# T4: human VEGF110 (human, UniProt P15692)
# T4 chain: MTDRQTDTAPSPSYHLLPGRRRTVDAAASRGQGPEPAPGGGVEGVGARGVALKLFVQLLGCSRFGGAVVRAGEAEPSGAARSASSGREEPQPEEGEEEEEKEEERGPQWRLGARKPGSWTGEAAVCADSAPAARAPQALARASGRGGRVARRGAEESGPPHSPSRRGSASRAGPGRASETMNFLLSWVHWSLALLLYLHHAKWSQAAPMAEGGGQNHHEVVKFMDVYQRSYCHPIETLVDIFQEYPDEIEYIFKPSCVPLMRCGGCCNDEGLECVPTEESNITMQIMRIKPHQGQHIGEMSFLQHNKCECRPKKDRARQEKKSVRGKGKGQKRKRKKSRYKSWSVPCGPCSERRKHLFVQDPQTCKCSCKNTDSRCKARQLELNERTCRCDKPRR
# T5: human PlGF (human, UniProt P49763)
# T5 chain: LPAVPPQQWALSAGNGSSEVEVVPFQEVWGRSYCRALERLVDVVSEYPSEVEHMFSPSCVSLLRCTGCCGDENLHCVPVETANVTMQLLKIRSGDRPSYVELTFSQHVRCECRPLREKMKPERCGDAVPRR
# T6: human VEGF165 (human, UniProt P15692)
# T6 chain: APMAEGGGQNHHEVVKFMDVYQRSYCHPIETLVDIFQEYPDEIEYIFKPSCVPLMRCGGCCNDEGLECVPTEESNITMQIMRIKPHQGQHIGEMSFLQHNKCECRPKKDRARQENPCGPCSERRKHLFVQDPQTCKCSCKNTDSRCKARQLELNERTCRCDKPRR
# B1: 509-maxII (antibody, V domains shown)
# VH: EVQLVESGGGLVQPGGSLRLSCTASGFSLSSYYMSWVRQAPGKGLEWVGILDYVGDTDYASWAKGRFTISKDASKNTVYLQMNSLRAEDTAVYYCARTDDSRGWGLNIWGQGTLVTVSS
# VL: EIVMTQSPSTLSASVGDRVIITCQASQNIRIWLSWYQQKPGKAPKLLIYKASTLESGVPSRFSGSGSGTEFTLTISSLQPDDFATYYCQNNAHYSTNGGTFGQGTKLTVLG
# B2: 509-max (antibody, V domains shown)
# VH: B1 VH with S35C, I50C
# VL: B1 VL
# B3: 511-max (antibody, V domains shown)
# VH: EVQLVESGGGLVQPGGSLRLSCTVSGFSLNTYYMNWVRQAPGKGLEWVGIIAPDDTTYYASWAKSRSTISRDTSKNTVYLQMNSLRAEDTAVYYCARSGDTTAWGADIWGQGTLVTVSS
# VL: EIVMTQSPSTLSASVGDRVIITCQASQSINIWLSWYQQKPGKAPKLLIYRASTLASGVPSRFSGSGSGTEFTLTISSLQPDDFATYYCQANYAYSAGYGAAFGQGTKLTVLG
# B4: 511-min (antibody, V domains shown)
# VH: B3 VH with T23A, V24A, G49S, S67F, T73N, V78L, R97K
# VL: B3 VL with L33C, T69A
# B5: 578minmax FW1.4_DHP (961) (antibody, V domains shown)
# VH: EVQLVESGGGSVQPGGSLRLSCTASGFSLTDYYYMTWVRQAPGKGLEWVGFIDPDDDPYYATWAKGRFTISRDTSKNTVYLQMNSLRAEDTATYYCAGGDHNSGWGLDIWGQGTTVTVSS
# VL: EIVMTQSPSTLSASVGDRVIITCQASEIIHSWLAWYQQKPGKAPKLLIYLASTLASGVPSRFSGSGSGAEFTLTISSLQPDDFATYYCQNVYLASTNGANFGQGTKLTVLG
# B6: 578min_max T84N_V89L (1008) (antibody, V domains shown)
# VH: B5 VH with S11L, T74N, V79L, T93V, T115L
# VL: B5 VL
# B7: 578min_max T84N_V89L_DHP (1017) (antibody, V domains shown)
# VH: B5 VH with T74N, V79L
# VL: B5 VL
# B8: 578minmax (903) (antibody, V domains shown)
# VH: B5 VH with S11L, T93V, T115L
# VL: B5 VL
# B9: 435-min (antibody, V domains shown)
# VH: EVQLVESGGGLVQPGGSLRLSCAASGFSLNTNYWMCWVRQAPGKGLEWVSCMYTGSYNRAYYASWAKGRFTISRDNSKNTLYLQMNSLRAEDTAVYYCAKGSNWYSDLWGQGTLVTVSS
# VL: EIVMTQSPSTLSASVGDRVIITCQASQSIGSSLAWYQQKPGKAPKLLIYTAANLASGVPSRFSGSGSGAEFTLTISSLQPDDFATYYCQNFATSDTVTFGQGTKLTVLG
# B10: 375-min (antibody, V domains shown)
# VH: EVQLVESGGGLVQPGGSLRLSCAASGFSFTTTDYMCWVRQAPGKGLEWVSCILAGDGSTYYANWAKGRFTISRDNSKNTLYLQMNSLRAEDTAVYYCAKSDPASSWSFALWGQGTLVTVSS
# VL: EIVMTQSPSTLSASVGDRVIITCQASENINIWLSWYQQKPGKAPKLLIYQASKLASGVPSRFSGSGSGAEFTLTISSLQPDDFATYYCQNNYSYNRYGAPFGQGTKLTVLG
# B11: 610-max (antibody, V domains shown)
# VH: EVQLVESGGGLVQPGGSLRLSCTASGIDFSGAYYMGWVRQAPGKGLEWVGYIDYDGDRYYASWAKGRFTISKDTSKNTVYLQMNSLRAEDTAVYYCARSDYSSGWGTDIWGQGTLVTVSS
# VL: EIVMTQSPSTLSASVGDRVIITCQASQSISSWLSWYQQKPGKAPKLLIYQASTLASGVPSRFSGSGSGTEFTLTISSLQPDDFATYYCQNNYGFRSYGGAFGQGTKLTVLG
# B12: 610-min (antibody, V domains shown)
# VH: B11 VH with T23A, G50S, K72R, T74N, V79L, R98K
# VL: B11 VL with T69A
# Biological target: T1, mouse VEGF164
# Test: SPR, pH 5
row,Kd [nM],Binder
1,1.73,B1
2,1.45,B2
3,0.0613,B3
4,1.64,B4

# Biological target: T2, human VEGF121
# Test: SPR, pH 5
row,Kd [nM],Binder
1,1.37,B1
2,0.335,B2
3,0.214,B3
4,1.24,B4

# Biological target: T3, rat VEGF164
# Test: SPR, pH 5
row,Kd [nM],Binder
1,1.81,B1
2,1.65,B2
3,0.106,B3
4,2.04,B4

# Biological target: T4, human VEGF110
# Test: SPR, pH 5
row,Kd [nM],Binder
1,1.48,B1
2,0.363,B2
3,0.197,B3
4,1.45,B4

# Biological target: T1, mouse VEGF164
# Test: SPR, pH 5
# Remark: another data set of the same source
row,Kd [nM],Binder
1,0.608,B5
2,1.53,B6
3,1.46,B7
4,0.567,B8

# Biological target: T5, human PlGF
# Test: SPR, pH 5
row,binding result,Binder
1,no binding,B1
2,no binding,B2
3,no binding,B3
4,no binding,B4

# Biological target: T6, human VEGF165
# Test: SPR, pH 5
row,binding result,Binder
1,no binding,B9

# Biological target: T3, rat VEGF164
# Test: SPR, pH 5
# Remark: another data set of the same source
row,Kd [nM],Binder
1,0.845,B5
2,1.89,B6
3,1.82,B7
4,0.748,B8

# Biological target: T6, human VEGF165
# Test: SPR, pH 5
# Remark: another data set of the same source
row,Kd [nM],Binder
1,5.41,B10
2,3.37,B1
3,1.21,B2
4,1.18,B11
5,10.6,B12
6,0.0667,B3
7,2.53,B4

# Biological target: T6, human VEGF165
# Test: SPR, pH 5
# Remark: another data set of the same source
row,Kd [nM],Binder
1,0.576,B5
2,1.59,B6
3,0.625,B8

# Biological target: T6, human VEGF165
# Test: SPR, pH 7.4
row,koff [s⁻¹],Binder
1,3.86,B10
2,35.7,B11

# Biological target: T6, human VEGF165
# Test: SPR, pH 7.4
# Remark: another data set of the same source
row,binding result,Binder
1,no binding,B12

# Biological target: T1, mouse VEGF164
# Test: SPR, pH 7.4
row,Kd [nM],Binder
1,0.0273,B8

# Biological target: T6, human VEGF165
# Test: SPR, pH 7.4
# Remark: another data set of the same source
row,Kd [nM],Binder
1,28.9,B9
2,2.61,B1
3,0.378,B2
4,0.0856,B3
5,1.31,B4

# Biological target: T3, rat VEGF164
# Test: SPR, pH 7.4
row,Kd [nM],Binder
1,0.0219,B8

# Biological target: T6, human VEGF165
# Test: competition, VEGFR2 ELISA
row,EC50 [nM],Binder
1,0.822,B3
